Where two headings read alike, the source gives them in different places.
What was measured:
[1] = target: HSP90α mutant Y61A (Homo sapiens, UniProt P07900, Y61A); assay: biochemical
[2] = target: HSP90α (90 kD heat shock protein alpha) (Homo sapiens, UniProt P07900); assay: biochemical
[3] = target: CDC37 recombinant protein (UniProt Q16543); assay: ITC
[4] = target: CDC37 recombinant protein (UniProt Q16543); assay: ITC; remark: listed apart in the source

CDC37 recombinant protein, sequence (Q16543 whole entry): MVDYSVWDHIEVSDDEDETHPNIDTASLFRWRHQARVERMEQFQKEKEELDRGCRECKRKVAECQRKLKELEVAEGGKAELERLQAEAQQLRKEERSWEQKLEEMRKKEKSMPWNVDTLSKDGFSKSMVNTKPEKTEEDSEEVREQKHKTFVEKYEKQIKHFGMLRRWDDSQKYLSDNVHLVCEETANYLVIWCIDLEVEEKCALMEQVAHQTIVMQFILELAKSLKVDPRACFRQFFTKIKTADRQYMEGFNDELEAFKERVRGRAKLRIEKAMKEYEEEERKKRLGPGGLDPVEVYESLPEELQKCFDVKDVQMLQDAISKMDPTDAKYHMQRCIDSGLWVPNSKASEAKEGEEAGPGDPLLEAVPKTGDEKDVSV

Row | Kd [3] | Kd [4] | Molecule | Kd [1] | Kd [2]
1 |  |  | CC(C)=CC/C=C(\C)[C@H]1CC[C@]2(C)[C@@H]1[C@H](O)C[C@@H]1[C@@]3(C)CC[C@H](O[C@@H]4O[C@H](CO)[C@@H](O)[C@H](O)[C@H]4O[C@@H]4O[C@H](CO)[C@@H](O)[C@H](O)[C@H]4O)C(C)(C)[C@@H]3CC[C@]12C [Rg5, ginsenoside Rg5] | 232 ± 34 µM | 24.8 ± 1.76 µM
2 | 7.59 µM | 8.23 µM | HSP90α Y61A recombinant protein from E. coli (from UniProt P07900 1-732) (natural protein) |  | 
3 | 2.68 µM | 34.4 µM | HSP90α WT recombinant protein from E. coli (from UniProt P07900 1-732) (natural protein) |  | 

From article PMC10759260 (Journal of Pharmaceutical Analysis, 2023)
